Assay results: PMC9900698, “Phosphorylation Regulation of a Histone-like HU Protein from Deinococcus radiodurans”
Numbering of substitutions follows the chain as printed.

B1: Duplex DNA (24bp) (dsDNA)
DNA 1: TCAATTATGTCAATGACATAAAAG
DNA 2: CTTTTATGTCATTGACATAATTGA
B2: Duplex DNA (36bp) (dsDNA)
DNA 1: GCAGAGTCAATTATGTCAATGACATAAAAGGCTCAG
DNA 2: CTGAGCCTTTTATGTCATTGACATAATTGACTCTGC
B3: Duplex DNA (48bp) (dsDNA)
DNA 1: TAACAAGCAGAGTCAATTATGTCAATGACATAAAAGGCTCAGGCCTTC
DNA 2: GAAGGCCTGAGCCTTTTATGTCATTGACATAATTGACTCTGCTTGTTA

Target: T1, DrHU T37E (Deinococcus radiodurans R1 (ATCC13939), UniProt Q9RZ89 1-122, T37E)
T1 sequence: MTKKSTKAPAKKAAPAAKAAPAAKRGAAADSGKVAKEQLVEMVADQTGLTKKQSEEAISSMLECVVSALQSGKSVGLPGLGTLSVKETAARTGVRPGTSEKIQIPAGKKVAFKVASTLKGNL
Experiment: EMSA; 10 mM Mg2+; EMSA: 50 mM NaCl, 20 mM Tris-HCl pH 8.0, 0.1 mg/ml BSA, 3 mM DTT, 0.1 mM EDTA, 10% glycerol, 10 mM MgCl2, 50 nM DNA, 0-3200 nM DrHU, room temperature 20 min; 22% native PAGE in 1x TB
Conditions: protein: recombinant; tags: N-terminal His-MBP (pET28a-HMT), removed by TEV; chain copies: 2; label: 5'-FAM; blunt

| Binder | Kd |
| --- | --- |
| B1 | 1180 ± 95.9 nM |
| B2 | 457 ± 62.9 nM |
| B3 | 389 ± 56 nM |

Target: T2, DrHU T37A (Deinococcus radiodurans R1 (ATCC13939), UniProt Q9RZ89 1-122, T37A)
T2 sequence: T1 sequence with E37A
Experiment: as above
Conditions: protein: recombinant; tags: N-terminal His-MBP (pET28a-HMT), removed by TEV; chain copies: 2; label: 5'-FAM; blunt

| Binder | binding result |
| --- | --- |
| B1 | no binding |
| B2 | no binding |
| B3 | no binding |
